Results published in the supplement of paper PMC10567573.

B1: TRIB1 (parent)
chain: EIGTSDQIVPEYQEDSDISSFFC

Variants of: B1
Experiment: protein stability index of a GFP-peptide fusion (GPS, HEK-293T) (PSI 1-6); higher = more stable
Details: c terminus: native
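Note: lentivirally expressed fusions sorted by FACS into six bins by GFP to DsRed ratio, PSI derived from sequencing read proportions per bin multiplied by bin number.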

Protein stability index, by site and new letter:
S20: F 2.81 | H 3.57 | P 3.44 | K 4.34 | V 2.53 | R 3.89 | L 1.79 | T 3.07 | C 2.49 | M 2.62 | N 2.83 | D 2.3 | Y 2.42 | E 2.37 | I 2.32 | Q 3.21 | W 2.35
S16: C 2.41 | F 2.6 | L 2.65 | A 3.03 | H 2.68 | Y 2.28 | T 2.56 | D 2.15 | E 1.75 | Q 3.32 | P 1.86
Y12: A 3.25 | H 4.37 | D 5.11 | I 2.91 | T 4.48 | P 3.4 | V 3.07 | S 4.19 | E 4.77 | M 2.12 | W 2.44 | C 3.68 | G 3.27 | Q 4.51 | K 5.54 | L 3.06
F21: T 4.78 | D 3.9 | W 2.89 | V 3.89 | Q 4.23 | R 3.64 | I 3.59 | H 4.58 | K 4.67 | E 4.43 | L 3.45 | N 4.7 | C 3.5 | G 3.97 | M 3.85
D17: H 3.47 | P 3.12 | T 3.29 | F 3.2 | C 2.92 | E 2.61 | Y 2.99 | I 3.28 | Q 2.94 | R 3.48 | L 3.2 | N 3.26 | V 2.87 | M 3.16
D15: S 3.33 | P 3.02 | G 3.71 | Y 2.48 | M 2.67 | A 3.59 | W 2.9 | L 2.18 | N 3.86 | R 4.24 | I 2.28 | E 2.2 | H 3.28
P10: Y 4.71 | N 5.23 | G 4.82 | I 4.09 | C 5.2 | F 3.77 | R 5.56 | V 5.1 | T 5.48 | K 5.56 | E 5.54 | A 5.38 | L 4.87 | D 5.63
I2: Y 2.81 | R 2.59 | V 3.35 | Q 2.73 | W 2.06 | A 2.86 | L 3.06 | T 2.75 | G 3.58 | S 2.94 | K 2.9 | D 4.01 | N 2.74 | C 2.57 | M 3.15 | H 3.45
S5: N 2.9 | W 3.02 | M 2.56 | T 2.2 | L 2.95 | R 2.77 | I 2.95 | F 2.31 | G 3.2 | E 2.77 | Q 2.42 | Y 1.73 | D 2.97 | V 3.15 | H 3.06
E14: P 2 | H 3.56 | D 2.65 | I 1.68 | F 2.33 | N 2.94 | Y 2.43 | Q 3.37 | W 1.7 | M 2.4 | S 2.88 | A 2.81 | G 2.83 | T 2.81 | C 2.48
V9: S 5.26 | H 5.32 | F 4.94 | K 5.49 | L 4.95 | N 5.57 | D 5.51 | M 5.12 | W 4.34 | T 5.53 | Q 5.78 | Y 5.2 | A 5.16 | E 5.74
T4: F 3.18 | Y 3.1 | D 2.32 | L 2.77 | W 2.73 | R 2.88 | C 2.33 | V 2.67 | M 2.67 | K 3.25 | S 2.87 | A 3.23
F22: I 4.03 | Y 2.03 | T 4.48 | L 3.36 | G 4.79 | A 4.11 | W 1.98 | H 4.3 | N 4.54 | C 3.45 | S 4.48 | D 3.86 | V 3.88 | R 4.7
D6: K 5.18 | F 4.14 | H 4.9 | G 5.55 | I 4.07 | E 4.77 | R 5.04 | N 4.69 | C 4.7 | L 4.45 | T 5.07 | V 4.57 | P 4.84 | Y 4.65 | Q 5.04 | S 5.45 | W 4.11 | M 4.3
C23: R 4.18 | H 3.65 | K 4.49 | E 2.94 | Y 2.26 | D 2.51 | L 2.9 | I 2.67 | G 3.67 | V 2.77 | N 3.73 | Q 3.76
S19: Y 1.84 | M 1.75 | W 1.56 | Q 3.48 | H 2.89 | I 1.83 | R 3.83 | D 2.67 | C 2.38 | V 2.72 | P 2.94 | N 2.92 | E 2.83 | K 4.21 | A 3.16 | T 2.35 | F 1.99
E11: Y 3.46 | I 3.43 | M 3.43 | R 3.68 | D 2.18 | L 4.33 | C 2.61 | H 3.79 | A 4.09 | N 3.08 | V 2.52 | G 2.25 | P 3.5 | W 4.16 | K 4.4 | Q 3.12
Q7: T 5.64 | W 4 | I 4.95 | G 5.28 | Y 4.43 | L 4.94 | F 3.76 | M 4.79 | K 5.04 | D 5.53 | R 5.27 | E 5.58 | N 4.88 | S 5.2 | A 5.23
E1: M 2.41 | S 2.42 | H 1.97 | Q 2.57 | K 1.98 | T 2.97 | P 3.11 | G 2.58 | W 2.46 | Y 2.11 | V 2.74 | I 1.9 | C 2.38 | R 2.77 | F 2.15 | D 2.57
I18: G 3.6 | F 2.91 | N 3.75 | Y 3.25 | M 3.29 | V 3.08 | R 4.26 | S 3.64 | D 3.36 | K 4.39 | E 2.69 | Q 3.9 | W 2.41 | A 3.4 | T 3.64
I8: W 4.69 | N 5.32 | V 2.07 | R 3.56 | Q 3.93 | G 4.66 | S 5.18 | F 5.17 | P 5.36 | H 5.15 | D 5.12 | E 4.19 | K 4.03
G3: H 2.63 | Q 2.7 | E 2.97 | F 2.32 | C 2.38 | Y 2.38 | L 2.29 | M 2.83 | T 3.01 | P 2.97 | I 2.42 | A 2.64 | K 2.65 | R 2.31
Q13: W 1.72 | P 3.5 | N 1.9 | L 2.77 | D 2.9 | G 2.13 | Y 2.12 | S 2.43 | F 1.81 | K 3.39 | T 1.97 | M 2.36
